Experimental data from PMC5729022.
Blank lines part the entries; values can stand above or below the substance they belong to.

Assays:
[1] = molecular target: network soluble collagen type IV from human placenta (human) (UniProt P02462)
[2] = molecular target: insoluble microfibrillar collagen type I from bovine skin, Col I(D) (bovine) (UniProt P02453)
[3] = molecular target: insoluble microfibrillar collagen type I from bovine Achilles tendon, Col I(S) (bovine) (UniProt P02453)
[4] = molecular target: soluble fibrillar collagen type III from human placenta (human) (UniProt P02461)
Chain of UniProt P02461 (P02461 154-1221): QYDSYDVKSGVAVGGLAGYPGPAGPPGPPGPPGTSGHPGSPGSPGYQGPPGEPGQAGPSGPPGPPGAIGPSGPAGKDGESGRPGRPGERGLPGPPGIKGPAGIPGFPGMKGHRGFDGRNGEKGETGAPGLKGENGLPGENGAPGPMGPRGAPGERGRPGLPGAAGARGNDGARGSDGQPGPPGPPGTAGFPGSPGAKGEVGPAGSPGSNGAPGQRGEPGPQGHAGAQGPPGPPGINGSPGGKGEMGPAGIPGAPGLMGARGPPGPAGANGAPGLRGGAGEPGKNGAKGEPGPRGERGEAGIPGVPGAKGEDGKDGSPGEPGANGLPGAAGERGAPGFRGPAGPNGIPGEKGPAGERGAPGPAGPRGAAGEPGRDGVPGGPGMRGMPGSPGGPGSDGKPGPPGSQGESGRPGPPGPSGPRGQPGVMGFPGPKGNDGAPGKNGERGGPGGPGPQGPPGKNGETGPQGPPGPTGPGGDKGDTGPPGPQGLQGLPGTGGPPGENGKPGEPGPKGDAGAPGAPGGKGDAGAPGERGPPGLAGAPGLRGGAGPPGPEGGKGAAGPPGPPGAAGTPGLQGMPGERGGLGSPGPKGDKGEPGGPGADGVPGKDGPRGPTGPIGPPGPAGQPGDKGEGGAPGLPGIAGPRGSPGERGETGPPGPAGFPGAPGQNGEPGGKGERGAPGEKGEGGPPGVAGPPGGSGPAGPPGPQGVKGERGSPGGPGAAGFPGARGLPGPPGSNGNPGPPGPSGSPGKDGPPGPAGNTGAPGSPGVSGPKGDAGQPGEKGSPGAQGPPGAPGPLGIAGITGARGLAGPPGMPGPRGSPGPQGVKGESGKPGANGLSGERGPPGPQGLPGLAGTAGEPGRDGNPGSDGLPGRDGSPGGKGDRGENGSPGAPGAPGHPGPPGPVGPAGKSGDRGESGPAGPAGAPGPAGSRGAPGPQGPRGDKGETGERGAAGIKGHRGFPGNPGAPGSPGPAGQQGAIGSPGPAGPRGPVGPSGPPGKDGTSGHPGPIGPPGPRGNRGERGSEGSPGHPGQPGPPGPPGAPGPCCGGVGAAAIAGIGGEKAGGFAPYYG

[5] = molecular target: soluble fibrillar collagen type II from bovine tracheal cartilage (bovine) (UniProt P02459)
Chain of UniProt P02459 (P02459 182-1241): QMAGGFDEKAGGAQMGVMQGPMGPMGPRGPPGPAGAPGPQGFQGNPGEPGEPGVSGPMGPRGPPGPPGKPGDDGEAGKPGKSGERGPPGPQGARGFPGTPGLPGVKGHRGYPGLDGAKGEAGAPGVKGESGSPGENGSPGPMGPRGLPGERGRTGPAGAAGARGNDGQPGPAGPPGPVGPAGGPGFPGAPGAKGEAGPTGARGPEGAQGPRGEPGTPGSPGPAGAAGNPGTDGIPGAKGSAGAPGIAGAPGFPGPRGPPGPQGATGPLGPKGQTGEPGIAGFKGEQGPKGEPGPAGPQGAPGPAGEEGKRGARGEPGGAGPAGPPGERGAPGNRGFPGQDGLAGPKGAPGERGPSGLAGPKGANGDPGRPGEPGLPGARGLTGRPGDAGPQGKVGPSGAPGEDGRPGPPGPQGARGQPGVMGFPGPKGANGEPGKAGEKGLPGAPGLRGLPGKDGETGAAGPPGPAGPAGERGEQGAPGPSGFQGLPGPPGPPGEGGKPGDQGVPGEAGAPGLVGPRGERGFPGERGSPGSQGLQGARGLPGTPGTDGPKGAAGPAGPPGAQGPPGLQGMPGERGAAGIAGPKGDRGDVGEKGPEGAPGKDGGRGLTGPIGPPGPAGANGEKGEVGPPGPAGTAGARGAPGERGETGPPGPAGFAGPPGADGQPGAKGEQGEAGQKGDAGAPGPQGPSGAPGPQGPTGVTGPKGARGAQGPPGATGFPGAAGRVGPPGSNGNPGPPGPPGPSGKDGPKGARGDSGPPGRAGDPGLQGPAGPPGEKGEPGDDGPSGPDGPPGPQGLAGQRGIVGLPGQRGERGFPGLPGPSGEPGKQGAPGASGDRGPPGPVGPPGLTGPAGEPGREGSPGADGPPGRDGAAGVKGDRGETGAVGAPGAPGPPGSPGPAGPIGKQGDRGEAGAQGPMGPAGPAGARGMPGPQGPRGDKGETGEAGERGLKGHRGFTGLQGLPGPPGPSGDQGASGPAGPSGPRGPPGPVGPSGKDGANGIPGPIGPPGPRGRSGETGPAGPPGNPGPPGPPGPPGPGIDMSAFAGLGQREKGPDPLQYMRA

percent of C2C12 cells transfected with human integrin α1 adhering to the collagen coating, 5 mM Mg2+, LDH assay, 1 × 10^5 cells/ml [1]: 51.9%
Substance: recombinant human integrin α1 I domain (GST fusion) (from UniProt P56199 169-363) (domain or fragment)

percent of C2C12 cells transfected with human integrin α2 adhering to the collagen coating, 5 mM Mg2+, LDH assay, 1 × 10^5 cells/ml [2]: 36.5%
percent of HT1080 cells (endogenous human α2β1) adhering to the collagen coating, 5 mM Mg2+, LDH assay, 1 × 10^5 cells/ml [2]: 43.6%
percent of C2C12 cells transfected with human integrin α2 adhering to the collagen coating, 5 mM Mg2+, LDH assay, 1 × 10^5 cells/ml [3]: 44.2%
percent of HT1080 cells (endogenous human α2β1) adhering to the collagen coating, 5 mM Mg2+, LDH assay, 1 × 10^5 cells/ml [3]: 45.6%
percent of C2C12 cells transfected with human integrin α2 adhering to the collagen coating, 5 mM Mg2+, LDH assay, 1 × 10^5 cells/ml [4]: 18.5%
percent of HT1080 cells (endogenous human α2β1) adhering to the collagen coating, 5 mM Mg2+, LDH assay, 1 × 10^5 cells/ml [4]: 28.1%
percent of C2C12 cells transfected with human integrin α2 adhering to the collagen coating, 5 mM Mg2+, LDH assay, 1 × 10^5 cells/ml [5]: 23.9%
percent of HT1080 cells (endogenous human α2β1) adhering to the collagen coating, 5 mM Mg2+, LDH assay, 1 × 10^5 cells/ml [5]: 40.3%
percent of C2C12 cells transfected with human integrin α2 adhering to the collagen coating, 5 mM Mg2+, LDH assay, 1 × 10^5 cells/ml [1]: 16.1%
percent of HT1080 cells (endogenous human α2β1) adhering to the collagen coating, 5 mM Mg2+, LDH assay, 1 × 10^5 cells/ml [1]: 24.7%
Substance: recombinant human integrin α2 I domain (GST fusion) (domain or fragment)

percent of Rugli cells (endogenous rat α1β1) adhering to the collagen coating, 5 mM Mg2+, LDH assay, 1 × 10^5 cells/ml [2]: 27%
percent of Rugli cells (endogenous rat α1β1) adhering to the collagen coating, 5 mM Mg2+, LDH assay, 1 × 10^5 cells/ml [3]: 22.8%
percent of Rugli cells (endogenous rat α1β1) adhering to the collagen coating, 5 mM Mg2+, LDH assay, 1 × 10^5 cells/ml [4]: 55.6%
percent of Rugli cells (endogenous rat α1β1) adhering to the collagen coating, 5 mM Mg2+, LDH assay, 1 × 10^5 cells/ml [5]: 18.9%
percent of Rugli cells (endogenous rat α1β1) adhering to the collagen coating, 5 mM Mg2+, LDH assay, 1 × 10^5 cells/ml [1]: 64.1%
Substance: recombinant rat integrin α1 I domain (GST fusion) (domain or fragment)
